Substitutions are numbered along the chain they refer to. Numbered stars: 1 amine (or outer) side, 2 acyl side, 3 side chain; on linkers, the order of the positions; unused ones are H or OH. Square brackets hold non-standard residues; d marks the D form. Side chains are listed from the residue outwards. Ends that are not written are not given here. * marks the point of attachment. C20 diacid = O=C(O)CCCCCCCCCCCCCCCCCCC(=O)*; γGlu = O=C(O)[C@H](CCC(=O)[*:2])N[*:1]; AEEA = NCCOCCOCC(=O)O; Aib = CC(C)(N)C(=O)O
B1: Peptide 98 (peptide)
peptide: YXEGTXTSDYSILLDKKAQXAFIEYLIEGG
modifications: Aib2; αMeF6; K17((2-[2-(2-Amino-ethoxy)-ethoxy]-acetyl)2-(γGlu)-CO-(CH2)18-CO2H); Aib20; C-terminal NH2
B2: Peptide 73 (peptide)
peptide: Y[Aib]EGTFTSDYSILLDKIAQ[Aib]AFIEYLIK([AEEA-AEEA-γGlu-C20 diacid])GG-NH2
modifications: N-terminus assumed
SMILES: CC[C@H](C)[C@H](NC(=O)[C@H](CCCCN)NC(=O)[C@H](CC(=O)O)NC(=O)[C@H](CC(C)C)NC(=O)[C@H](CC(C)C)NC(=O)[C@@H](NC(=O)[C@H](CO)NC(=O)[C@H](Cc1ccc(O)cc1)NC(=O)[C@H](CC(=O)O)NC(=O)[C@H](CO)NC(=O)[C@@H](NC(=O)[C@H](Cc1ccccc1)NC(=O)[C@@H](NC(=O)CNC(=O)[C@H](CCC(=O)O)NC(=O)C(C)(C)NC(=O)[C@@H](N)Cc1ccc(O)cc1)[C@@H](C)O)[C@@H](C)O)[C@@H](C)CC)C(=O)N[C@@H](C)C(=O)N[C@@H](CCC(N)=O)C(=O)NC(C)(C)C(=O)N[C@@H](C)C(=O)N[C@@H](Cc1ccccc1)C(=O)N[C@H](C(=O)N[C@@H](CCC(=O)O)C(=O)N[C@@H](Cc1ccc(O)cc1)C(=O)N[C@@H](CC(C)C)C(=O)N[C@H](C(=O)N[C@@H](CCCCNC(=O)COCCOCCNC(=O)COCCOCCNC(=O)CC[C@H](NC(=O)CCCCCCCCCCCCCCCCCCC(=O)O)C(=O)O)C(=O)NCC(=O)NCC(N)=O)[C@@H](C)CC)[C@@H](C)CC
B3: Peptide 52 (peptide)
peptide: YXEGTFTSDYSIXLDSKAQXAFIEYLIEGGPSSGAPPPS
modifications: Aib2; αMeL13; K17((2-[2-(2-Amino-ethoxy)-ethoxy]-acetyl)2-(γGlu)-CO-(CH2)18-CO2H); Aib20; C-terminal NH2
B4: Peptide 83 (peptide)
peptide: B3 peptide with X13L, S16K, E28X
modifications: Aib2; K17((2-[2-(2-Amino-ethoxy)-ethoxy]-acetyl)2-(γGlu)-CO-(CH2)18-CO2H); Aib20; D-Glu28; C-terminal NH2
B5: Peptide 66 (peptide)
peptide: B3 peptide with S16E, I27L
modifications: Aib2; αMeL13; K17((2-[2-(2-Amino-ethoxy)-ethoxy]-acetyl)2-(γGlu)-CO-(CH2)18-CO2H); Aib20; C-terminal NH2
B6: Peptide 84 (peptide)
peptide: B3 peptide with X13L, S16K, E24X
modifications: Aib2; K17((2-[2-(2-Amino-ethoxy)-ethoxy]-acetyl)2-(γGlu)-CO-(CH2)18-CO2H); Aib20; D-Glu24; C-terminal NH2
B7: Peptide 3 (peptide)
peptide: B3 peptide with F6X, S16X, A21E, E24X
modifications: Aib2; αMeF(2F)6; αMeL13; Orn16; K17((2-[2-(2-Amino-ethoxy)-ethoxy]-acetyl)2-(γGlu)-CO-(CH2)18-CO2H); Aib20; D-Glu24; C-terminal NH2
B8: Peptide 60 (peptide)
peptide: B3 peptide with S16X
modifications: Aib2; αMeL13; Aib16; K17((2-[2-(2-Amino-ethoxy)-ethoxy]-acetyl)2-(γGlu)-CO-(CH2)18-CO2H); Aib20; C-terminal NH2
B9: Peptide 68 (peptide)
peptide: B3 peptide with S11X, X13L, S16K
modifications: Aib2; αMeS11; K17((2-[2-(2-Amino-ethoxy)-ethoxy]-acetyl)2-(γGlu)-CO-(CH2)18-CO2H); Aib20; C-terminal NH2
B10: Peptide 89 (peptide)
peptide: B3 peptide with E3X, X13L, S16K
modifications: Aib2; Aad3; K17((2-[2-(2-Amino-ethoxy)-ethoxy]-acetyl)2-(γGlu)-CO-(CH2)18-CO2H); Aib20; C-terminal NH2
B11: Peptide 69 (peptide)
peptide: B3 peptide with F6X, S16K
modifications: Aib2; αMeF6; αMeL13; K17((2-[2-(2-Amino-ethoxy)-ethoxy]-acetyl)2-(γGlu)-CO-(CH2)18-CO2H); Aib20; C-terminal NH2
B12: Peptide 81 (peptide)
peptide: B3 peptide with S11X, X13L, S16K
modifications: Aib2; D-Ser11; K17((2-[2-(2-Amino-ethoxy)-ethoxy]-acetyl)2-(γGlu)-CO-(CH2)18-CO2H); Aib20; C-terminal NH2
B13: Peptide 48 (peptide)
peptide: Y[Aib]EGTFTSDYSILLDKIAQ[Aib]AFIEYLIEGGPSSGAPPPK([AEEA-AEEA-γGlu-C20 diacid])-NH2
modifications: N-terminus assumed
SMILES: CC[C@H](C)[C@H](NC(=O)[C@H](CCCCN)NC(=O)[C@H](CC(=O)O)NC(=O)[C@H](CC(C)C)NC(=O)[C@H](CC(C)C)NC(=O)[C@@H](NC(=O)[C@H](CO)NC(=O)[C@H](Cc1ccc(O)cc1)NC(=O)[C@H](CC(=O)O)NC(=O)[C@H](CO)NC(=O)[C@@H](NC(=O)[C@H](Cc1ccccc1)NC(=O)[C@@H](NC(=O)CNC(=O)[C@H](CCC(=O)O)NC(=O)C(C)(C)NC(=O)[C@@H](N)Cc1ccc(O)cc1)[C@@H](C)O)[C@@H](C)O)[C@@H](C)CC)C(=O)N[C@@H](C)C(=O)N[C@@H](CCC(N)=O)C(=O)NC(C)(C)C(=O)N[C@@H](C)C(=O)N[C@@H](Cc1ccccc1)C(=O)N[C@H](C(=O)N[C@@H](CCC(=O)O)C(=O)N[C@@H](Cc1ccc(O)cc1)C(=O)N[C@@H](CC(C)C)C(=O)N[C@H](C(=O)N[C@@H](CCC(=O)O)C(=O)NCC(=O)NCC(=O)N1CCC[C@H]1C(=O)N[C@@H](CO)C(=O)N[C@@H](CO)C(=O)NCC(=O)N[C@@H](C)C(=O)N1CCC[C@H]1C(=O)N1CCC[C@H]1C(=O)N1CCC[C@H]1C(=O)N[C@@H](CCCCNC(=O)COCCOCCNC(=O)COCCOCCNC(=O)CC[C@H](NC(=O)CCCCCCCCCCCCCCCCCCC(=O)O)C(=O)O)C(N)=O)[C@@H](C)CC)[C@@H](C)CC
B14: Peptide 103 (peptide)
peptide: B1 peptide with L13X, K16E, A21E
modifications: Aib2; αMeF(2F)6; αMeL13; K17((2-[2-(2-Amino-ethoxy)-ethoxy]-acetyl)2-(γGlu)-CO-(CH2)18-CO2H); Aib20; C-terminal NH2
B15: Peptide 50 (peptide)
peptide: Y[Aib]EGTFTSDYSILLDKK([AEEA-AEEA-γGlu-C20 diacid])AQ[Aib]AFIEYLIEGGPSSG-NH2
modifications: N-terminus assumed
SMILES: CC[C@H](C)[C@H](NC(=O)[C@H](CC(C)C)NC(=O)[C@H](Cc1ccc(O)cc1)NC(=O)[C@H](CCC(=O)O)NC(=O)[C@@H](NC(=O)[C@H](Cc1ccccc1)NC(=O)[C@H](C)NC(=O)C(C)(C)NC(=O)[C@H](CCC(N)=O)NC(=O)[C@H](C)NC(=O)[C@H](CCCCNC(=O)COCCOCCNC(=O)COCCOCCNC(=O)CC[C@H](NC(=O)CCCCCCCCCCCCCCCCCCC(=O)O)C(=O)O)NC(=O)[C@H](CCCCN)NC(=O)[C@H](CC(=O)O)NC(=O)[C@H](CC(C)C)NC(=O)[C@H](CC(C)C)NC(=O)[C@@H](NC(=O)[C@H](CO)NC(=O)[C@H](Cc1ccc(O)cc1)NC(=O)[C@H](CC(=O)O)NC(=O)[C@H](CO)NC(=O)[C@@H](NC(=O)[C@H](Cc1ccccc1)NC(=O)[C@@H](NC(=O)CNC(=O)[C@H](CCC(=O)O)NC(=O)C(C)(C)NC(=O)[C@@H](N)Cc1ccc(O)cc1)[C@@H](C)O)[C@@H](C)O)[C@@H](C)CC)[C@@H](C)CC)C(=O)N[C@@H](CCC(=O)O)C(=O)NCC(=O)NCC(=O)N1CCC[C@H]1C(=O)N[C@@H](CO)C(=O)N[C@@H](CO)C(=O)NCC(N)=O
B16: Peptide 99 (peptide)
peptide: B1 peptide with L13X
modifications: Aib2; αMeF6; αMeL13; K17((2-[2-(2-Amino-ethoxy)-ethoxy]-acetyl)2-(γGlu)-CO-(CH2)18-CO2H); Aib20; C-terminal NH2
B17: Peptide 64 (peptide)
peptide: B1 peptide with X6F, L13X, K16S
modifications: Aib2; αMeL13; K17((2-[2-(2-Amino-ethoxy)-ethoxy]-acetyl)2-(γGlu)-CO-(CH2)18-CO2H); Aib20; C-terminal NH2
B18: Peptide 65 (peptide)
peptide: B1 peptide with X6F, L13X, K16T
modifications: Aib2; αMeL13; K17((2-[2-(2-Amino-ethoxy)-ethoxy]-acetyl)2-(γGlu)-CO-(CH2)18-CO2H); Aib20; C-terminal NH2
B19: Peptide 63 (peptide)
peptide: B1 peptide with X6F, L13X, K16E
modifications: Aib2; αMeL13; K17((2-[2-(2-Amino-ethoxy)-ethoxy]-acetyl)2-(γGlu)-CO-(CH2)18-CO2H); Aib20; C-terminal NH2
B20: Peptide 95 (peptide)
peptide: B1 peptide with K17I, E28K
modifications: Aib2; αMeF6; Aib20; K28((2-[2-(2-Amino-ethoxy)-ethoxy]-acetyl)2-(γGlu)-CO-(CH2)18-CO2H); C-terminal NH2
B21: Peptide 51 (peptide)
peptide: Y[Aib]EGTFTSDYSILLDKK([AEEA-AEEA-γGlu-C20 diacid])AQ[Aib]AFIEYLIEGG-NH2
modifications: N-terminus assumed
SMILES: CC[C@H](C)[C@H](NC(=O)[C@H](CC(C)C)NC(=O)[C@H](Cc1ccc(O)cc1)NC(=O)[C@H](CCC(=O)O)NC(=O)[C@@H](NC(=O)[C@H](Cc1ccccc1)NC(=O)[C@H](C)NC(=O)C(C)(C)NC(=O)[C@H](CCC(N)=O)NC(=O)[C@H](C)NC(=O)[C@H](CCCCNC(=O)COCCOCCNC(=O)COCCOCCNC(=O)CC[C@H](NC(=O)CCCCCCCCCCCCCCCCCCC(=O)O)C(=O)O)NC(=O)[C@H](CCCCN)NC(=O)[C@H](CC(=O)O)NC(=O)[C@H](CC(C)C)NC(=O)[C@H](CC(C)C)NC(=O)[C@@H](NC(=O)[C@H](CO)NC(=O)[C@H](Cc1ccc(O)cc1)NC(=O)[C@H](CC(=O)O)NC(=O)[C@H](CO)NC(=O)[C@@H](NC(=O)[C@H](Cc1ccccc1)NC(=O)[C@@H](NC(=O)CNC(=O)[C@H](CCC(=O)O)NC(=O)C(C)(C)NC(=O)[C@@H](N)Cc1ccc(O)cc1)[C@@H](C)O)[C@@H](C)O)[C@@H](C)CC)[C@@H](C)CC)C(=O)N[C@@H](CCC(=O)O)C(=O)NCC(=O)NCC(N)=O
B22: Peptide 97 (peptide)
peptide: YXEGTFTSDYSIXLDKIAQXAFIEYLIKGG
modifications: Aib2; αMeL13; Aib20; K28((2-[2-(2-Amino-ethoxy)-ethoxy]-acetyl)2-(γGlu)-CO-(CH2)18-CO2H); C-terminal NH2
B23: Peptide 62 (peptide)
peptide: B22 peptide with I17K, K28E
modifications: Aib2; αMeL13; K17((2-[2-(2-Amino-ethoxy)-ethoxy]-acetyl)2-(γGlu)-CO-(CH2)18-CO2H); Aib20; C-terminal NH2
B24: Peptide 47 (peptide)
peptide: Y[Aib]EGTFTSDYSILLDKIAQ[Aib]AFIEYLIEGGPSSGAPPK([AEEA-AEEA-γGlu-C20 diacid])S-NH2
modifications: N-terminus assumed
SMILES: CC[C@H](C)[C@H](NC(=O)[C@H](CCCCN)NC(=O)[C@H](CC(=O)O)NC(=O)[C@H](CC(C)C)NC(=O)[C@H](CC(C)C)NC(=O)[C@@H](NC(=O)[C@H](CO)NC(=O)[C@H](Cc1ccc(O)cc1)NC(=O)[C@H](CC(=O)O)NC(=O)[C@H](CO)NC(=O)[C@@H](NC(=O)[C@H](Cc1ccccc1)NC(=O)[C@@H](NC(=O)CNC(=O)[C@H](CCC(=O)O)NC(=O)C(C)(C)NC(=O)[C@@H](N)Cc1ccc(O)cc1)[C@@H](C)O)[C@@H](C)O)[C@@H](C)CC)C(=O)N[C@@H](C)C(=O)N[C@@H](CCC(N)=O)C(=O)NC(C)(C)C(=O)N[C@@H](C)C(=O)N[C@@H](Cc1ccccc1)C(=O)N[C@H](C(=O)N[C@@H](CCC(=O)O)C(=O)N[C@@H](Cc1ccc(O)cc1)C(=O)N[C@@H](CC(C)C)C(=O)N[C@H](C(=O)N[C@@H](CCC(=O)O)C(=O)NCC(=O)NCC(=O)N1CCC[C@H]1C(=O)N[C@@H](CO)C(=O)N[C@@H](CO)C(=O)NCC(=O)N[C@@H](C)C(=O)N1CCC[C@H]1C(=O)N1CCC[C@H]1C(=O)N[C@@H](CCCCNC(=O)COCCOCCNC(=O)COCCOCCNC(=O)CC[C@H](NC(=O)CCCCCCCCCCCCCCCCCCC(=O)O)C(=O)O)C(=O)N[C@@H](CO)C(N)=O)[C@@H](C)CC)[C@@H](C)CC
B25: Peptide 4 (peptide)
peptide: YXEGTXTSDXSIXLDXKAQXEFIXXLIEGGPSSGAPPPS
modifications: Aib2; αMeF(2F)6; 4Pal10; αMeL13; Orn16; K17((2-[2-(2-Amino-ethoxy)-ethoxy]-acetyl)2-(γGlu)-CO-(CH2)16-CO2H); Aib20; D-Glu24; αMeY25; C-terminal NH2

Molecular target: human GLP-1 receptor (human, UniProt P43220 24-463)
Test: cell-based or functional assay

| Binder | hGLPIR cAMP EC50 ratio |
| --- | --- |
| B1 | 0.384 |
| B2 | 0.0225 |
| B3 | 0.514 |
| B4 | 0.166 |
| B5 | 0.255 |
| B6 | 0.173 |
| B7 | 1.25 |
| B8 | 0.237 |
| B9 | 0.354 |
| B10 | 0.175 |
| B11 | 0.85 |
| B12 | 0.063 |
| B13 | 0.0966 |
| B14 | 0.655 |
| B15 | 0.675 |
| B16 | 0.629 |
| B17 | 0.429 |
| B18 | 0.233 |
| B19 | 0.386 |
| B20 | 0.0576 |
| B21 | 0.426 |
| B22 | 0.0268 |
| B23 | 0.463 |
| B24 | 0.089 |
| B25 | 1.41 |
